From IntAct's records for PubMed 18049475 come the findings set out here.

The target in experiment [1] is gck3_caeel gck-3 (UniProt G5EEN4).
Experiment [2] has the same target. This is another data set of the same source.
For experiment [3] the target is unchanged. This is another data set of the same source.

gck3_caeel gck-3, sequence (G5EEN4 whole entry): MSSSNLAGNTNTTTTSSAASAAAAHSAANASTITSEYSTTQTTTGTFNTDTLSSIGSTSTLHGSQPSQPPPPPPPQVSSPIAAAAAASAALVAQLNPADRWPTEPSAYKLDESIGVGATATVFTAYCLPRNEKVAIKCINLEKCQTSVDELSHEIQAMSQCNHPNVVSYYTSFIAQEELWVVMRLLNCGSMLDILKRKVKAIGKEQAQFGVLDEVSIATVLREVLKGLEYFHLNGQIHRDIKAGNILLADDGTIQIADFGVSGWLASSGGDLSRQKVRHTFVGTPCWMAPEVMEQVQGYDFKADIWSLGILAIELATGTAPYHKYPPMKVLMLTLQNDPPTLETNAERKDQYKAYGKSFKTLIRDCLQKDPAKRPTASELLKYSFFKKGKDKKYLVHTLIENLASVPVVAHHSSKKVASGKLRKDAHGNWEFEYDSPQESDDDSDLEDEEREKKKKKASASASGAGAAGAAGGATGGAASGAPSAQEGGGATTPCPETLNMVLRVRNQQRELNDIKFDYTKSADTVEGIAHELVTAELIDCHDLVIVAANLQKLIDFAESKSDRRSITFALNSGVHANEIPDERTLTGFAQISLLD

“Serine/threonine-protein kinase WNK (Caenorhabditis elegans), X5M5N0 F1133A;F1222A”: in the experiment with gck3_caeel gck-3 [1], the “effect of a mutation on the interaction” value is “disrupting interaction”. As to “Serine/threonine-protein kinase WNK (Caenorhabditis elegans), X5M5N0 F1222A”, the “effect of a mutation on the interaction” value with gck3_caeel gck-3 [2] is on record as “decreasing interaction”. On to “Serine/threonine-protein kinase WNK (Caenorhabditis elegans), X5M5N0 F1133A”, for which, in the experiment with gck3_caeel gck-3 [3], the “effect of a mutation on the interaction” value is reported as “decreasing interaction”.
